From publication PMC8141531

Columns and labels:
Assay in all cases: SPR
[1] = target: human IL-2Rα-Fc chimera (human) (UniProt P01589)
[2] = target: human IL-2Rβ-Fc chimera (human) (UniProt P14784)
[3] = target: heterodimeric IL-2Rαβ (human IL-2Rα-Fc chimera and human IL-2Rβ-Fc chimera captured together) (human) (UniProt P01589)

Sequence of UniProt P14784 (P14784 27-240, change not shown): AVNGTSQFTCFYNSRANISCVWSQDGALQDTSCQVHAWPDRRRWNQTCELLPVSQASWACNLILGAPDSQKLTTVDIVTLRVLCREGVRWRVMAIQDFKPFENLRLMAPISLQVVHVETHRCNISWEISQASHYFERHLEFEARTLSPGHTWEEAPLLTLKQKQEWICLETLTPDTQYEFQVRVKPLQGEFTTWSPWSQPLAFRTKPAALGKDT

- Kd [1]: 7.3 µM
- Kd [2]: 88 µM
- Kd [3]: 1.7 µM
Substance: NKTR-358, a PEGylated form of rhIL-2 (aldesleukin sequence) (from UniProt P60568 21-153) (ligand)
